Assay results from patent US20210363247A1, “Novel Treatments of Glaucoma” (The Regents of the University of California, priority 2019, published 2021).
Entries after “also recorded” stand apart in the source; their conditions may differ.

Columns and labels:
rabbit = rabbit model, inhibitor delivered locally by eye drops, IOP; assay type: in vivo
Source text: (§1) These protocols employ two different antibodies: anti-human WNTSA antibody produced in rabbit purified immunoglobulin, buffered aqueous solution (Sigma-Aldrich SAB1411396), and an anti-human WNTSA monoclonal antibody produced in mouse clone 6F2, ascites fluid (Sigma-Aldrich SAB5300183), although other Wnt5a antibodies can be used, e.g. Hanaki et al., Mol Cancer Ther 11(2) February 2012; He et al. Oncogene. 2005, 24 (18): 3054-3058.
(§2) These protocols employ a t-butyloxycarbonyl-modified Wnt5a-derived hexapeptide (Box5) that functions as a potent antagonist of Wnt5a (Jenei, et la., PNAS USA, 106 (46), 19473-8), and 6,7-dihydro -10alpha-hydroxy radicicol, a potent WNT-5A expression inhibitor with relatively low toxicity and excellent stability (Shinonaga et al. Bioorg Med Chem. 2009 Jul. 1; 17(13):4622-35).
(§3) These protocols employed OMP18R5 (a humanized monoclonal antibody that binds FZD5), Abcam ab52565 (a monoclonal antibody that binds FZD2), and cirmtuzumab (a humanized IgG1 anti-ROR1 monoclonal antibody), though an anti-human FZD5, FZD2 siRNA and ROR1 polyclonal and monoclonal antibodies, are commercially available from multiple sources, e.g. ThermoFisher Scientific, Abcam, SigmaAldrich, etc.); see also U.S. Pat. No. 9,573,998 for antibodies against human FZD5.

mouse = mouse model, inhibitor delivered locally by eye drops, IOP; assay type: in vivo
Source text: as §1, §2, §3

[1] = test system: human Schlemm's canal cells; assay: tube formation of human Schlemm's canal cells; assay type: cell-based; details: in vitro; vs scrambled siRNA, isotype control or vehicle control of ethanol (0.07%); *P<0.05
Source text: FIGS. 1A-G. (A-C) Real-time quantitative PCR data showing the expression levels of FZD5, ROR1 and FZD2 in human Schlemm's canal cells are regulated by sheer stress (A), Wnt5a intervention by small interference RNAs (siRNAs) (B), or Wnt5a stimulation (C). (D and E) Summarized data showing that tube formation of human Schlemm's canal cells was inhibited by FZD5 siRNA (D) or ROR1 siRNA (E), respectively. Scrambled siRNA was used as negative control. *P<0.05. (F and G) Representative images showing that tube formation of human Schlemm's canal cells are regulated by the intervention of FZD5 (F) or ROR1 (G) via siRNAs. *P<0.05. […]
(§4) In exemplary models vivo data were obtained using well-established mouse model of glaucoma with laser-induced occlusion of episcleral veins (Zhang L, et al. Establishment and Characterization of an Acute Model of Ocular Hypertension by Laser-Induced Occlusion of Episcleral Veins. Invest Ophthalmol Vis Sci. 2017 Aug. 1; 58(10):3879-3886). […] Central corneal thickness and RNFL were measured on Day 3 or Day 7 by in vivo OCT, respectively. […]

[2] = test system: human Schlemm's canal cells; assay: Fluo-4 staining of intracellular calcium signal; assay type: cell-based
Source text: (§5) FIGS. 2A-C. (A-C, top panels) Real-time quantitative PCR data showing the expression levels of PLCB1, PPP3R1 and NFATC3 in human Schlemm's canal cells are regulated by sheer stress (A), Wnt5a intervention via siRNAs (B), or Wnt5a stimulation (C). (A-C, lower panels) Representative images and summarized data of Fluo-4 staining showing intracellular calcium signal is regulated by sheer stress (A), Wnt5a intervention via siRNAs (B), or Wnt5a stimulation (C). Green: Fluo-4, blue: DAPI nuclear staining *P<0.05.
In exemplary models vivo data were obtained using well-established mouse model of glaucoma with laser-induced occlusion of episcleral veins (Zhang L, et al. Establishment and Characterization of an Acute Model of Ocular Hypertension by Laser-Induced Occlusion of Episcleral Veins. Invest Ophthalmol Vis Sci. 2017 Aug. 1; 58(10):3879-3886). Intraocular hypertension is introduced in the right eyes (OD) of the mice with the left eyes (OS) as controls. In these examples, the inhibitors or their controls were delivered daily to the right eyes via local administration of subconjunctival injection, starting from Day 1 after the induction of intraocular hypertension in the right eyes of the mice. Left eyes were used as controls. Central corneal thickness and RNFL were measured on Day 3 or Day 7 by in vivo OCT, respectively. All in vitro data were collected from human Schlemm's cells in culture.

[3] = test system: human Schlemm's canal cells; assay: real-time quantitative PCR of expression levels in human Schlemm's canal cells; assay type: cell-based
Source text: FIGS. 1A-G. (A-C) Real-time quantitative PCR data showing the expression levels of FZD5, ROR1 and FZD2 in human Schlemm's canal cells are regulated by sheer stress (A), Wnt5a intervention by small interference RNAs (siRNAs) (B), or Wnt5a stimulation (C). (D and E) Summarized data showing that tube formation of human Schlemm's canal cells was inhibited by FZD5 siRNA (D) or ROR1 siRNA (E), respectively. Scrambled siRNA was used as negative control. *P<0.05. (F and G) Representative images showing that tube formation of human Schlemm's canal cells are regulated by the intervention of FZD5 (F) or ROR1 (G) via siRNAs. *P<0.05.
as §5
FIGS. 3A-B. Real-time quantitative PCR data showing the expression of CAMK2D in human Schlemm's canal cells is regulated by sheer stress (A), or wnt5a stimulation (B), respectively. *P<0.05.
as §4, with “58(10):3879-3886). Intraocular hypertension is introduced in the right eyes (OD) of the mice with the left eyes (OS) as controls.” for “58(10):3879-3886).”

## 6,7-dihydro -10alpha-hydroxy radicicol
rabbit
  therapy for pathogenic IOP: effective therapies
mouse
  therapy for pathogenic IOP: effective therapies

## O=C(OC[C@H]1O[C@@H](OC(=O)c2cc(O)c(O)c(O)c2)[C@H](OC(=O)c2cc(O)c(O)c(O)c2)[C@@H](OC(=O)c2cc(O)c(O)c(O)c2)[C@@H]1OC(=O)c1cc(O)c(O)c(O)c1)c1cc(O)c(O)c(O)c1 [DB03208, Beta-1,2,3,4,6-Penta-O-Galloyl-D-Glucopyranose]
[1]
  tube formation of human Schlemm's canal cells: inhibited

B1: Wnt5a: Wnt5a used to stimulate human SC cells (protein, UniProt P41221 62-380, looked up)
Protein Wnt-5a: IIGAQPLCSQLAGLSQGQKKLCHLYQDHMQYIGEGAKTGIKECQYQFRHRRWNCSTVDNTSVFGRVMQIGSRETAFTYAVSAAGVVNAMSRACREGELSTCGCSRAARPKDLPRDWLWGGCGDNIDYGYRFAKEFVDARERERIHAKGSYESARILMNLHNNEAGRRTVYNLADVACKCHGVSGSCSLKTCWLQLADFRKVGDALKEKYDSAAAMRLNSRGKLVQVNSRFNSPTTQDLVYIDPSPDYCVRNESTGSLGTQGRLCNKTSEGMDGCELMCCGRGYDQFKTVQTERCHCKFHWCCYVKCKKCTEIVDQFVCK
[2]
  intracellular calcium signal: regulated
[3]
  expression levels of FZD5, ROR1 and FZD2: regulated; also recorded: increased
  expression levels of PLCB1, PPP3R1 and NFATC3: regulated
  expression of CAMK2D: regulated
